Experimental data from patent US20150203577A1 (Chugai, published 2015).
Positions count from the first letter of the chain named.

T1: mouse FcγRII extracellular domain, C-terminally His-tagged (mouse, UniProt P08101 30-210)
T1 construct: the whole entry is named; also called mFcγRII; mFcgRII
T1 sequence: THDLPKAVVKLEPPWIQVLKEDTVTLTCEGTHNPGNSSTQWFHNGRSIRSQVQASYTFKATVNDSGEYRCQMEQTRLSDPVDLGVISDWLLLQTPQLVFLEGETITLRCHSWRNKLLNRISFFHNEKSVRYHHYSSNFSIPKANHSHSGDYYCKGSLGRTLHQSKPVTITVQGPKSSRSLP

T2: mouse FcγRII extracellular domain, C-terminal His tag (mouse, UniProt P08101 30-210)
T2 construct: Whole entry named; also called mFcγRII; mFcgRII
T2 sequence: T1 sequence

T3: mouse FcγRIII extracellular domain, C-terminal His tag (mouse, UniProt P08508 31-215)
T3 construct: Whole entry named; also called mFcγRIII; mFcgRIII
T3 chain: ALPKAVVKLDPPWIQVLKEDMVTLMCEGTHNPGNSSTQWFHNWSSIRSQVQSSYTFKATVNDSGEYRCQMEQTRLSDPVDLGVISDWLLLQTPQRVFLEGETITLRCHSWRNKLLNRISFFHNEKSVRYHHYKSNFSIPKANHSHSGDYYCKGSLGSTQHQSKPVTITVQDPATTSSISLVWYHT

T4: mouse FcγRIII extracellular domain, C-terminally His-tagged (mouse, UniProt P08508 31-215)
T4 construct: the whole entry is named; also called mFcγRIII; mFcgRIII
T4 chain: T3 chain

B1: H237-MB706/MRAL-k0 (antibody, mouse IgG1, kappa)
heavy: QVQLQESGPGLVKPSETLSLTCAVSGHSISHDHAWSWVRQPPGEGLEWIGFISYSGITNYNPSLQGRVTISRDNSKNTLYLQMNSLRAEDTAVYYCARSLARTTAMDYWGEGTLVTVSSAKTTPPSVYPLAPGSAAQTNSMVTLGCLVKGYFPEPVTVTWNSGSLSSGVHTFPAVLQSDLYTLSSSVTVPSSTWPSETVTCNVAHPASSTKVDKKIVPRDCGCKPCICEPAEVEVVFIFPPKPKDVLTITLTPKVTCVVVDISKDDPEVQFSWFVDDVEVHTAQTQPREEQFNSTFRSVSELPIMHQDWLNGKEFKCRVNSAAFPAPIEKTISKTKGRPKAPQVYTIPPPKEQMAKDKVSLTCMITDFFPEDITVEWQWNGQPAENYKNTQPIMDTDGSYFVYSKLNVQKSNWEAGNTFTCSVLHEGLHNHHTEKSLSHSPGK
light: not shown
notes: copies: 2 + 2
B2: H237-MB712/MRAL-k0 (antibody, mouse IgG1, kappa)
heavy: B1 heavy with V235H
light: not shown
notes: copies: 2 + 2
B3: H237-MB707/MRAL-k0 (antibody, mouse IgG1, kappa)
heavy: B1 heavy with V235I
light: not shown
notes: copies: 2 + 2
B4: H237-MB720/MRAL-k0 (antibody, mouse IgG1, kappa)
heavy: B1 heavy with A231N, V235R
light: not shown
notes: copies: 2 + 2
B5: H237-MB711/MRAL-k0 (antibody, mouse IgG1, kappa)
heavy: B1 heavy with V235R
light: not shown
notes: copies: 2 + 2
B6: H237-MB867/MRAL-k0 (antibody, mouse IgG1, kappa)
heavy: B1 heavy with A231N, V235I, K264D, A322D, A323G
light: not shown
notes: copies: 2 + 2
B7: H237-MB868/MRAL-k0 (antibody, mouse IgG1, kappa)
heavy: B1 heavy with A231N, V235I, K264D, N320D, A322D, A323G
light: not shown
notes: copies: 2 + 2
B8: H237-MB875/MRAL-k0 (antibody, mouse IgG1, kappa)
heavy: B1 heavy with A231N, V235I, K264D, Q291L, N320D, A322D, A323G
light: not shown
notes: copies: 2 + 2
B9: H237-MB877/MRAL-k0 (antibody, mouse IgG1, kappa)
heavy: B1 heavy with A231N, V235I, K264D, N320D, A322D, A323G, K330R
light: not shown
notes: copies: 2 + 2
B10: H237-MB876/MRAL-k0 (antibody, mouse IgG1, kappa)
heavy: B1 heavy with A231N, V235I, K264D, Q291L, A322D, A323G, E329Y
light: not shown
notes: copies: 2 + 2
B11: H237-MB871/MRAL-k0 (antibody, mouse IgG1, kappa)
heavy: B1 heavy with A231N, V235I, K264D, Q291L, A322D, A323G
light: not shown
notes: copies: 2 + 2
B12: H237-MB870/MRAL-k0 (antibody, mouse IgG1, kappa)
heavy: B1 heavy with A231N, V235I, K264D, A322D, A323G, K330R
light: not shown
notes: copies: 2 + 2
B13: H237-MB866/MRAL-k0 (antibody, mouse IgG1, kappa)
heavy: B1 heavy with A231N, V235I, A322D, A323G
light: not shown
notes: copies: 2 + 2
B14: H237-MB869/MRAL-k0 (antibody, mouse IgG1, kappa)
heavy: B1 heavy with A231N, V235I, K264D, A322D, A323G, E329Y
light: not shown
notes: copies: 2 + 2
B15: H237-MB729/MRAL-k0 (antibody, mouse IgG1, kappa)
heavy: B1 heavy with A231N, V233E, V235D
light: not shown
notes: copies: 2 + 2
B16: H237-MB730/MRAL-k0 (antibody, mouse IgG1, kappa)
heavy: B1 heavy with E229Q, A231N, V233E, V235D
light: not shown
notes: copies: 2 + 2
B17: H237-MB731/MRAL-k0 (antibody, mouse IgG1, kappa)
heavy: B1 heavy with V233E, V235L
light: not shown
notes: copies: 2 + 2
B18: H237-MB732/MRAL-k0 (antibody, mouse IgG1, kappa)
heavy: B1 heavy with A231N, V233E, V235L
light: not shown
notes: copies: 2 + 2
B19: H237-MB883/MRAL-k0 (antibody, mouse IgG1, kappa)
heavy: B1 heavy with V233E, E234S, V235L
light: not shown
notes: copies: 2 + 2
B20: H237-MB884/MRAL-k0 (antibody, mouse IgG1, kappa)
heavy: B1 heavy with A231N, V233E, E234S, V235L
light: not shown
notes: copies: 2 + 2
B21: H237-MB885/MRAL-k0 (antibody, mouse IgG1, kappa)
heavy: B1 heavy with V233E, V235S
light: not shown
notes: copies: 2 + 2
B22: H237-MB878/MRAL-k0 (antibody, mouse IgG1, kappa)
heavy: B1 heavy with E229T, V233E, V235L
light: not shown
notes: copies: 2 + 2
B23: H237-MB886/MRAL-k0 (antibody, mouse IgG1, kappa)
heavy: B1 heavy with A231N, V233E, V235S
light: not shown
notes: copies: 2 + 2

Molecular target: T1, mouse FcγRII extracellular domain, …
Experiment: SPR Biacore T200, KD ratio

relative mFcγRII-binding activity (mIgG1 = 1)	Binder
0.23 fold	B1
0.16 fold	B2
0.37 fold	B3
0.08 fold	B4
0.05 fold	B5

Molecular target: T2, mouse FcγRII extracellular domain, …
Experiment: SPR (Biacore T200); KD of H237-MB716/MRAL-k0 / KD of variant
Source text: (§1) The antibody H chain variable region used was the variable region H237 (SEQ ID NO: 1) of the H chain VH3-IgG1 of the anti-IL-6 receptor antibody Fv4-IgG1 described in WO2009/125825. The antibody L chain commonly used was the L chain MRAL-k0 (SEQ ID NO: 2) of the anti-IL-6 receptor antibody tocilizumab. H237-MB716/MRAL-k0 was used as a template to introduce the alterations. These variants were expressed and purified by the method of Reference Example 1 and evaluated for their binding to mFcγRII and mFcγRIII by the method of Reference Example 2 using Biacore T200.
(§2) Each altered antibody was analyzed for its interaction with each Fcγ receptor prepared above using Biacore T100 (GE Healthcare Japan Corp.), Biacore T200 (GE Healthcare Japan Corp.), Biacore A100, or Biacore 4000. The running buffer used was HBS-EP+ (GE Healthcare Japan Corp.). The assay temperature was set to 25° C. The sensor chips used were chips prepared by immobilizing Protein L (ACTIGEN or BioVision) onto Series S Sensor Chip CM5 (GE Healthcare Japan Corp.) or Series S Sensor Chip CM4 (GE Healthcare Japan Corp.) by the amine coupling method.

relative mFcγRII-binding activity (MB716 = 1)	Binder
8.1 fold	B6
8.4 fold	B7
16.8 fold	B8
12.7 fold	B9
13.5 fold	B10
14.2 fold	B11
8.9 fold	B12
3 fold	B13
9.4 fold	B14

Molecular target: T3, mouse FcγRIII extracellular domain, …
Experiment: as above
Source text: as §1, §2

relative mFcγRIII-binding activity (MB716 = 1)	Binder
14.3 fold	B6
14.4 fold	B7
32.3 fold	B8
24.4 fold	B9
24.9 fold	B10
28.2 fold	B11
17.6 fold	B12
3.02 fold	B13
15.8 fold	B14

Molecular target: T4, mouse FcγRIII extracellular domain, …
Experiment: SPR Biacore T200

binding result	Binder
no binding	B1
no binding	B2
no binding	B3
no binding	B4
no binding	B5

Molecular target: T2, mouse FcγRII extracellular domain, …
Experiment: SPR (Biacore T200); KD of H237-mIgG1/MRAL-k0 / KD of variant
Source text: as §1, §2

relative mFcγRII-binding activity (mIgG1 = 1)	Binder
35.2 fold	B6
36.6 fold	B7
72.8 fold	B8
55.3 fold	B9
58.7 fold	B10
61.8 fold	B11
38.6 fold	B12
13 fold	B13
41 fold	B14

Molecular target: T3, mouse FcγRIII extracellular domain, …
Experiment: as above
Source text: as §1, §2

relative mFcγRIII-binding activity (mIgG1 = 1)	Binder
0.85 fold	B6
0.86 fold	B7
1.92 fold	B8
1.45 fold	B9
1.48 fold	B10
1.67 fold	B11
1.05 fold	B12
0.18 fold	B13
0.94 fold	B14

Molecular target: T2, mouse FcγRII extracellular domain, …
Experiment: as above
Remark: another data set of the same source
Source text: as §1, with “The aforementioned 11 variants were” for “H237-MB716/MRAL-k0 was”, “templates” for “a template”, “alteration.” for “alterations.”
as §2
(§3) In order to calculate the KD value of each altered antibody for FcγR, kinetic analysis was conducted according to the following method: first, the antibody of interest was captured onto any of these chips and allowed to interact with mFcγR diluted with a running buffer. For the obtained sensorgram, the assay results were globally fit into the 1:1 Langmuir binding model using Biacore Evaluation Software to calculate an association rate constant ka (L/mol/s) and a dissociation rate constant kd (1/s). From these values, the dissociation constant KD (mol/L) was calculated.

relative mFcγRII-binding activity (mIgG1 = 1)	Binder
10.4 fold	B15
7.24 fold	B16
7.13 fold	B17
0.84 fold	B18

Molecular target: T3, mouse FcγRIII extracellular domain, …
Experiment: as above
Remark: another data set of the same source
Source text: as §1, with “The aforementioned 11 variants were” for “H237-MB716/MRAL-k0 was”, “templates” for “a template”, “alteration.” for “alterations.”
as §2, §3

relative mFcγRIII-binding activity (mIgG1 = 1)	Binder
0.53 fold	B15
0.43 fold	B16
0.03 fold	B17
0.03 fold	B18

Molecular target: T2, mouse FcγRII extracellular domain, …
Experiment: as above
Remark: another data set of the same source
Protocol: as §2, §3

relative mFcγRII-binding activity (mIgG1 = 1)	Binder
2.21 fold	B19
2.46 fold	B20
3.29 fold	B21
0.47 fold	B22
1.47 fold	B23

Molecular target: T3, mouse FcγRIII extracellular domain, …
Experiment: as above
Remark: another data set of the same source
Protocol: as §2, §3

relative mFcγRIII-binding activity (mIgG1 = 1)	Binder
0.11 fold	B19
0.09 fold	B20
0.13 fold	B21
0.03 fold	B22
0.08 fold	B23
